# Experiments:
# Assay in all cases: label-free LC-MS/MS
# [1] = target: AAV-DJ capsid incorporating VP3 with a GFPnb inserted at position H631 (AAV-DJ | not stated)
# [2] = target: AAV-DJ capsid incorporating VP1 with a GFPnb inserted at position H631 (AAV-DJ | not stated)
# [3] = target: AAV-DJ capsid incorporating VP3 with the ALFAnb inserted at position H631 (AAV-DJ | not stated)
Substance,GFP/capsid (GFP-NLS per capsid) [1],"GFP/capsid, Rep1 [1]","GFP/capsid, Rep2 [1]","GFP/capsid, Rep3 [1]",GFP/capsid (GFP-NLS per capsid) [2],"GFP/capsid, Rep1 [2]","GFP/capsid, Rep2 [2]","GFP/capsid, Rep3 [2]","GFP/capsid, avg [2]",GFP/capsid (GFP-NLS-ALFA proteins per capsid) [3],"GFP/capsid, Rep1 [3]","GFP/capsid, Rep3 [3]","GFP/capsid, avg [3]"
GFP tagged with a c-Myc NLS at the C-terminus,3 to 15,13.1 GFP/capsid,2.17 GFP/capsid,1.35 GFP/capsid,1 to 3,0.89 GFP/capsid,2.27 GFP/capsid,0.81 GFP/capsid,1.33 GFP/capsid,,,,
green fluorescent protein (GFP) (from UniProt P42212 1-238) (natural protein),,,,,,0.89 GFP/capsid,0.73 GFP/capsid,0.33 GFP/capsid,0.65 GFP/capsid,,,,
GFP C-terminally tagged with a c-Myc NLS followed by the ALFA tag,,,,,,,,,,1 to 9,8.63 GFP/capsid,0.3 GFP/capsid,3.35 GFP/capsid
